{"source": "paper PMC5050335", "key": {"[1]": {"molecular_target": "T1, Cap0037 (Clostridium acetobutylicum ATCC 824) (UniProt Q97TR1)", "T1 sequence": "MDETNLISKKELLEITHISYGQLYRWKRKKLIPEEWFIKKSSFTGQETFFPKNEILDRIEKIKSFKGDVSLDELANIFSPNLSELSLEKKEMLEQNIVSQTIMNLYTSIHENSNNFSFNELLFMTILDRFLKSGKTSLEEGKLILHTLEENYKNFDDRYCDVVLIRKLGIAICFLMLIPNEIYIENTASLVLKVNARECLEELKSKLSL", "assay": "DNase I footprinting", "details": "EMSA: 20 ul with 2 ul buffer (stock 200 mM Tris, 500 mM Na glutamate, 100 mM MgCl2, 63.6 mM EDTA, 0.5% NP-40, 50% glycerol), 1 ug poly(dI-dC), 20 min room …"}, "[2]": {"molecular_target": "T1, Cap0037 (Clostridium acetobutylicum ATCC 824)", "assay": "EMSA", "details": "EMSA: 20 ul with 2 ul buffer (stock 200 mM Tris, 500 mM Na glutamate, 100 mM MgCl2, 63.6 mM EDTA, 0.5% NP-40, 50% glycerol), 1 ug poly(dI-dC), 20 min room …"}}}
{"sequence": "ACAGAATTCCTCAATTCTATTTATGCTCCTATAAAATTTTATAATATAGGAAAACTGCTAAATGTAAATTATACGTTTACATTTAGCAGTTTATTTTAAACCTTCATATTTTTCTAAATATACTGATAATTCCTAAATATATATTATTACGCCAAAATATTAGATACCATTTTGTAAAAGTTGCTATTTACATTTAAATACACAGCTGTTATATTTTTGACCTATGCTTTTTATTGGAT (double strand) [probe sol (sol promoter, footprint)]", "values": [{"measurement": "binding", "setting": "[1]", "value": "binds"}]}
{"sequence": "ACAGAATTCGCAGAATTTTTAGGAAGTGTACTTTTATTTTCGAAAGCTAGTAGAAAAAATTAATATATGGTGTAAAAATTTACTTAAAAAAACAATATGTGTTATAATGTAAATATAAATAAATAGGACTAGAGGCGATTTATAATGTGAAGATAAAGTATGTTAGAAAAGCTAAACATTATTAAATTTAGGAAGGTGACTTTTATGTTAAAGGATGAAGTAATTAAACAAATTAGCACGCCATTAACTTCGCCGAT (double strand) [probe adcStart (adc transcription start)]", "values": [{"measurement": "binding", "setting": "[1]", "value": "binds"}]}
{"sequence": "CTGCATAATATAAAATGCAGATTTTTTTAAACAAATATTGATAAAGATTATCAAATGATATATAATATTGTTAGTTAATAAATTAACAAAGTTTTATATTTTAAATACAATGTTGCATAAGACAAGGTAATTGAACTAATACTATACTAGTAATTGGAGGGGATAATATATGAAAAAGAATACTAAAATTTCAGTAATCGGAGCAGGATTTGT (double strand) [ldhA promoter]", "values": [{"measurement": "binding", "setting": "[2]", "value": "no binding"}]}
{"sequence": "AGAGAATTCCCATTTTACCTTCTATTCTAACTAAAAGGTATATTGATACAGCTATGGGAAAGCCAACATTGCCTATAAGAGACACTATATCGCCTGAATTCATAAAAACACCTCCACATAAGTTTATATAAATCTATTATGCAGAATTTTTAGGAAGTGTACTTTTATTTTCGAAAGCTAGTAGAAAAAATTAATATATGGTGTAAAAATTTACTTAAAAAAACAATATGTGTTATAATGGAT (double strand) [probe 144 (adc promoter, upstream site)]", "values": [{"measurement": "binding", "setting": "[1]", "value": "binds"}]}
{"sequence": "GCATAGGTCAAAAATATAACAGCTGTGTATTTAAATGTAAATAGCAACTTTTACAAAATGGTATCTAATATTTTGGCGTAATAATATATATTTAGGAATTATCAGTATATTTAGAAAAATATGAAGGTTTAAAATAAACTGCTAAATGTAAACGTATAATTTACATTTAGCAGTTTTCCTATATTATAAAATTTTATAGGAGCATAAATAGAATTGAGT (double strand) [sol probe (EMSA)]", "values": [{"measurement": "binding", "setting": "[2]", "value": "binds"}]}
